The target of data set [1] is PorX. Kind of data set: SEC-MALLS absolute molecular weight. The settings on record: reference: PorX with MgCl2 alone; sites D58.
The target of data set [2] is PorX. The data set is described as follows: small-angle X-ray scattering in solution. The settings on record: reference: PorX without BeF3; sites D58.
The target in data set [3] is PorX (wild type, non-phosphorylated) (Porphyromonas gingivalis W83) (UniProt B2RJJ3). The data set is described as follows: SAXS.
For data set [4] the target is unchanged. Kind of data set: SAXS. This is another data set of the same source.
Data set [5] concerns the target Selenomethionine variant of PorX, phosphorylated with acetyl phosphate (Porphyromonas gingivalis W83) (UniProt B2RJJ3). Kind of data set: SEC-MALS. In general terms: SEC sorts molecules by how far they enter the pores of the column.
The data set “crystal structure” concerns the molecule itself. Kind of data set: crystal structure.
Data set [6] concerns the molecule itself. The data set is described as follows: SEC.
Data set [7] deals with the molecule itself. Kind of data set: SEC. This is another data set of the same source.

Like-named read-outs stand apart in the source and are kept apart here.

A word on the stoichiometry N: it is the number of molecules, sites or subunits per partner or assembly.

On to “PorX PorX pre-incubated with AcP and MgCl2”, for which the “other: MALLS molecular weight” value in the data set with PorX [1] is listed as “gained; reference 70.2”.
On to PorX PorX with BeF3 and MgCl2, for which the “other: radius of gyration” value in the data set with PorX [2] is recorded as “gained; reference 29.6”.
Regarding “PorX (wild type, non-phosphorylated) (from UniProt B2RJJ3 1-518) (natural protein)”, the stoichiometry N in data set [3] and in data set [4] was 2 in each case.
Consider “Selenomethionine variant of PorX, phosphorylated with acetyl phosphate (from UniProt B2RJJ3 1-518) (natural protein)”, for which, in data set [5], the stoichiometry N is 2.

B1: PorX T272A, selenomethionine variant (T272A-pGpG crystal) (natural protein, Porphyromonas gingivalis W83)
chain: MEKNMRPYTVLWADDEIDLLKPHILFLEQKGYQVTPVLSGNDAIEALQNNDFDIVFLDENMPGIGGLDALQKIKELKPYTPVVMITKSEEEHIMTQAIGGKIADYLIKPVNPNQLLLSLKKNLQQHSIISETTNTNYRQEFVQLGAQMSGKLSFEEWKELYRRIVFWEIELEQADRQMGELLEMQKQEANRLFARFVTQNYREWIAKPDTRPTMSPDLFKQKVFPLLDNGEKVFFILIDNFRQDQWESVKSMLSEFYTFEEDMYLSILPTAAQYARNAIFSGLMPLQIEKMFPDLWVDEESEEGKNLNEEPMIRTLIERYRKHYSFSYNKVYETKFGERLLGQIRSLSQNQLNVIVLNFVDMMSHARTDSKMIRELASNEAAYRSLTKSWFKHSTTYNLFRSIAEMGYKVVLTTDHGTIQVKNPVKVIGDRSTNTNLRYKIGKNLDYNPKEVFEIKDPASVGLPHNNLSDKFIFTKEDDFFAYPNNYNYYVQYYRNTFQHGGISLEEMLVPVITMQPK
modifications: selenomethionine
Take B1: the binding result in the data set “crystal structure” is on record as “binds”.

B2: PorX T272A (natural protein, Porphyromonas gingivalis W83)
chain: B1 chain
For B2, the binding result in “SEC [6]” is reported as “binds”.

B3: PorX T272A incubated with acetyl phosphate (phosphorylated) (natural protein, Porphyromonas gingivalis W83)
chain: B1 chain
modifications: phosphorylated with acetyl phosphate (attenuated against the wild type)
As to B3, the binding result in the data set “SEC [7]” was “binds”.
